Patent publication US20150374663A1
Each block holds one binder with its values, some of them ahead of it. Ends that are not written are not given here.

Key:
[1] = molecular target: type V tartrate-resistant acid phosphatase (TRAP) protein, immobilised on CM5 sensor chip; assay: SPR, TRAP amine-coupled to CM5 chip, initial rate analysis of sensorgrams
[2] = molecular target: type V tartrate-resistant acid phosphatase (TRAP) protein, immobilised on CM5 sensor chip; assay: SPR, TRAP-functionalized surface, binding curve fit (n = 2, Ave. ± StDev)
[3] = molecular target: type V tartrate-resistant acid phosphatase (TRAP) protein, immobilised on CM5 sensor chip; assay: SPR, TRAP-functionalized surface; upper end of the range told of the peptide-functionalized polymers, tied to the 5% polymer through Table 1
[4] = molecular target: type V tartrate-resistant acid phosphatase (TRAP) protein, immobilised on CM5 sensor chip; assay: SPR, TRAP-functionalized surface; lower end of the range told of the peptide-functionalized polymers, tied to the 20% polymer through Table 1

B2: 5% TBP-functionalized PEG polymer of Table 4, M:CTA:I 250:1:0.1, Mn 42.3 kDa (peptide)
peptide: TPLSYLKGLVTVG-OH
modifications: not fully specified (N-terminus); also: RAFT copolymer with PEG methyl ether methacrylate (300 Da), about 5 peptides per chain
Kd [1]: 80 µM

B4: 5% peptide monomer TBP-functionalized PEG polymer of Table 1 (Mn 103900 Da, 3.9% peptide incorporated) (peptide)
peptide: TPLSYLKGLVTVG-OH
modifications: not fully specified (N-terminus); also: RAFT random copolymer with PEG monomethyl ether methacrylate
Kd [2]: 21.7 µM
Kd [3]: 7.1 to 21 µM

B6: 5% TBP-functionalized PEG polymer of Table 4, M:CTA:I 125:1:0.1, Mn 17.1 kDa (peptide)
peptide: TPLSYLKGLVTVG-OH
modifications: not fully specified (N-terminus); also: RAFT copolymer with PEG methyl ether methacrylate (300 Da), about 3 peptides per chain
Kd [1]: 70 µM

B7: 5% TBP-functionalized PEG polymer of Table 4, M:CTA:I 600:1:0.1, Mn 98.2 kDa (peptide)
peptide: TPLSYLKGLVTVG-OH
modifications: not fully specified (N-terminus); also: RAFT copolymer with PEG methyl ether methacrylate (300 Da), about 11 peptides per chain
Kd [1]: 140 µM

Continued, values first:

Kd [1]: 70 µM
B1: 20% TBP-functionalized PEG polymer of Table 4, M:CTA:I 500:1:0.1, Mn 32.7 kDa (peptide)
peptide: TPLSYLKGLVTVG-OH
modifications: not fully specified (N-terminus); also: RAFT copolymer with PEG methyl ether methacrylate (300 Da), about 12 peptides per chain

Kd [2]: 12.7 µM
B3: 10% peptide monomer TBP-functionalized PEG polymer of Table 1 (Mn 69000 Da, 7.5% peptide incorporated) (peptide)
peptide: TPLSYLKGLVTVG-OH
modifications: not fully specified (N-terminus); also: RAFT random copolymer with PEG monomethyl ether methacrylate

Kd [2]: 7.5 µM
Kd [4]: 7.1 to 21 µM
B5: 20% peptide monomer TBP-functionalized PEG polymer of Table 1 (Mn 26700 Da, 17.1% peptide incorporated) (peptide)
peptide: TPLSYLKGLVTVG-OH
modifications: not fully specified (N-terminus); also: RAFT random copolymer with PEG monomethyl ether methacrylate
